Experiments:
[1] = molecular target: RAS antigen of the BIAcore measurements; assay: SPR, BIAcore 2000
[2] = molecular target: RAS antigen of the BIAcore measurements; assay: SPR, BIAcore 2000; Kd = koff/kon

B1: anti-RAS scFv33 (scFv)
chain: QVQLVEAGGGLVQPGGSLRLSCAASGFSFSTFSMNWVRQAPGKGLEWVSYISSSGRTIYYADSVKGRFTISRDNAKNSLYLQMNSLRDEDTAVYYCARGRFFDYWGQGTLVTVSSGGGGSGGGGSGGGGSDIVMTQSPSFLSASVGDRVTITCRASQSISRYLNWYQQKPGKAPKLLIYAASSLQSGVPSRFSGSGSGTDFTLTISSLQPEDFAIYYCQQSYSTLLTFGGGTKLEIKR
koff [1]: 0.00113 s⁻¹ | kon [1]: 176000 M⁻¹ s⁻¹ | Kd [2]: 9.97 nM
